Measurements reported in patent publication US20040142470, “Recombinase-based system for construction of adenovirus vectors” (published 2004).

Biological target: Cre recombinase (UniProt P06956 P06956:1-343)
Assay: cell_activity; plaque formation in cotransfected 293Cre4 cells relative to homologous recombination; pCA36loxΔ gave plaques only in 293Cre cells (Table 2)
Settings: tags: stably expressed in 293Cre4 cells or from shuttle plasmid cassette (pLC2); chain copies: 4; BamHI/BglII overhangs
Source text: The efficiency of Cre/lox mediated recombination was compared with that of homologous recombination, by measuring the numbers of virus plaques obtained from cotransfections of 293 cells versus the numbers obtained following cotransfections of 293Cre4 cells (see, for example, U.S. patent application Ser. No. 08/473,168, filed Jun. 7, 1995; see also WO96/40955, hereby incorporated by reference).

Cre recombinase, sequence (P06956 whole entry, one chain of several): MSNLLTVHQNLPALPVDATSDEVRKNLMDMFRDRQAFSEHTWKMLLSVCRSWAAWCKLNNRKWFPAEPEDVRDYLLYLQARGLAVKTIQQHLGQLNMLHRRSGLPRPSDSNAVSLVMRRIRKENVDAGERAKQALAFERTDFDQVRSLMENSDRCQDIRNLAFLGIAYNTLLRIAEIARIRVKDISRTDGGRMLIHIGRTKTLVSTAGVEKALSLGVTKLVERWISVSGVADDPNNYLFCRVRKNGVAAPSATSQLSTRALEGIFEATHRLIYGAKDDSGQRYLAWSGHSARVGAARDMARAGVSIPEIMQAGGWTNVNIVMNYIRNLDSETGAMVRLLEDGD

B1: loxP linker AB3233/3234 (in pBHG10lox and pCA36lox / pCA36loxΔ) (dsDNA)
DNA 1: GATCCAATAACTTCGTATAGCATACATTATACGAAGTTATAAGTACTGAATTCG
DNA 2: GATCCGAATTCAGTACTTATAACTTCGTATAATGTATGCTATACGAAGTTATTG
relative plaque formation efficiency: 35 fold
